Results reported in patent publication US20250002588A1 (DIAGONAL THERAPEUTICS, published 2025).

target: ALK-1/BMPR-2 receptor pair of the PathHunter U2Os dimerization cells (DiscoverX 93-0962C3) (UniProt P37023 22-503; Q13873 27-1038); assay: cell-based or functional assay
Sequence (P37023 22-503, chain 1 of 2): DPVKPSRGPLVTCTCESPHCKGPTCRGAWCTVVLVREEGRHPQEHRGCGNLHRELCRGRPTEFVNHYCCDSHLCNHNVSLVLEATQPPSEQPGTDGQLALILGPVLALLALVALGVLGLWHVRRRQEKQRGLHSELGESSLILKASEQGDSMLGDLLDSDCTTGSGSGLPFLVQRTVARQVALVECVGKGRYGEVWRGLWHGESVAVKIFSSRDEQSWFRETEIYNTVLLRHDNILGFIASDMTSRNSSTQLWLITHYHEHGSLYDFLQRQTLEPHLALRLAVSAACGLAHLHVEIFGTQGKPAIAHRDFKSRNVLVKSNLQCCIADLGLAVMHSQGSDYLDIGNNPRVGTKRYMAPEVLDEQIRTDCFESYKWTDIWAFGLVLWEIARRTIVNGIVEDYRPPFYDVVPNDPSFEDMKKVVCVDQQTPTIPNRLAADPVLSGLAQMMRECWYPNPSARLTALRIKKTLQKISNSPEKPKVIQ
Sequence (Q13873 27-1038, chain 2 of 2): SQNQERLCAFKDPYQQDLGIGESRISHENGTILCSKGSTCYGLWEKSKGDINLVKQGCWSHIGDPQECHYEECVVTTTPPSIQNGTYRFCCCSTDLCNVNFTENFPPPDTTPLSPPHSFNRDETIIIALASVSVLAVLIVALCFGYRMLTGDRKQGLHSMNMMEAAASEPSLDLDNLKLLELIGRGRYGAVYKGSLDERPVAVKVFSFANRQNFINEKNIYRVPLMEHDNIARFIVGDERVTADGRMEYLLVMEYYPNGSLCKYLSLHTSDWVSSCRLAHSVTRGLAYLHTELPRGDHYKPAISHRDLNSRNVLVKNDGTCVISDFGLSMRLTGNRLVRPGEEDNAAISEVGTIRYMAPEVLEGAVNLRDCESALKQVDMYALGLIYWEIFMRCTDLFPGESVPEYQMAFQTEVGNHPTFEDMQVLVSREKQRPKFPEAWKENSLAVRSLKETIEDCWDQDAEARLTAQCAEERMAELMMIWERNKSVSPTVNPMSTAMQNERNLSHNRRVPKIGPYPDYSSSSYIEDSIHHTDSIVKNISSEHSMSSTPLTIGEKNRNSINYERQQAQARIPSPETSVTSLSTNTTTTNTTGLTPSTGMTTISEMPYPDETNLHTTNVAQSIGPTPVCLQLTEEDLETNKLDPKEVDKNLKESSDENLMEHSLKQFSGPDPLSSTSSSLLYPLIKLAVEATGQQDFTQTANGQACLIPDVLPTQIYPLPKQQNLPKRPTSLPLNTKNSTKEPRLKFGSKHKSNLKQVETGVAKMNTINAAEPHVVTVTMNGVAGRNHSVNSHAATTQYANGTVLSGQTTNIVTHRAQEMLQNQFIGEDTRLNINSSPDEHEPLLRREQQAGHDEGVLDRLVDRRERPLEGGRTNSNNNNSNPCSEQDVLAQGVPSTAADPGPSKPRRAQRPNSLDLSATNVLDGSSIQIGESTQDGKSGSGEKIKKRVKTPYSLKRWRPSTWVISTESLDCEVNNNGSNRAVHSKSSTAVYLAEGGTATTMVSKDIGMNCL

Binder | % Emax BMP9 [%] | Emax (RLU)
DGL651 (bispecific antibody) chain 1: not shown chain 2: EVQLLESGGGLVQPGGSLRLSCAASGFTFSDYYMTWIRQAPGKGLEWVSSISGGSTYYADSRKGRFTISRDNSENTLYLQMNSLRAEDTAVYYCARDFGVAGWFGQYGMDVWGQGTLVTVSSGGGGSGGGGSGGGGSQSVLTQPPSASGTPGQRVTISCTGSSSNIGAGYDVHWYQQLPGTAPKLLIYRSNQRPSGVPDRFSGSKSGTSASLAISGLRSEDEADYYCSSYAGNYNLVFGGGTKLTVLDKTHTCPPCPAPEAAGAPSVFLFPPKPKDTLMISRTPEVTCVVVDVSHEDPEVKFNWYVDGVEVHNAKTKPREEQYNSTYRVVSVLTVLHQDWLNGKEYKCKVSNKALPAPIEKTISKAKGQPREPQVCTLPPSRDELTKNQVSLSCAVKGFYPSDIAVEWESNGQPENNYKTTPPVLDSDGSFFLVSKLTVDKSRWQQGNVFSCSVMHEALHNHYTQKSLSLSPGWSHPQFEK | 72 | 1.76e+07
DGL731 (bispecific antibody) chain 1: EVQLLESGGGLVQPGGSLRLSCAASGFTFSDYYMTWIRQAPGKGLEWVSSISGGSTYYADSRKGRFTISRDNSENTLYLQMNSLRAEDTAVYYCARDFGVSGWFGQYGMDVWGQGTLVTVSSGGGGSGGGGSGGGGSQSVLTQPPSASGTPGQRVTISCTGSSSNIGAGYDVHWYQQLPGTAPKLLIYRSNQRPSGVPDRFSGSKSGTSASLAISGLRSEDEADYYCSSYAGNYNLVFGGGTKLTVLDKTHTCPPCPAPEAAGAPSVFLFPPKPKDTLMISRTPEVTCVVVDVSHEDPEVKFNWYVDGVEVHNAKTKPREEQYNSTYRVVSVLTVLHQDWLNGKEYKCKVSNKALPAPIEKTISKAKGQPREPQVCTLPPSRDELTKNQVSLSCAVKGFYPSDIAVEWESNGQPENNYKTTPPVLDSDGSFFLVSKLTVDKSRWQQGNVFSCSVMHEALHNHYTQKSLSLSPGWSHPQFEK chain 2: not shown | 100 | 1.56e+06
DGL654 (bispecific antibody) chain 1: EVQLLESGGGLVQPGGSLRLSCAASGFTFSDYYMNWIRQAPGKGLEWVSSISGGSTYYADSVKGRFTISRDNSENTLYLQMNSLRAEDTAVYYCARDFGVAGWFGQFGMDVWGQGTLVTVSSGGGGSGGGGSGGGGSQSVLTQPPSASGTPGQRVTISCTGSSSNIGAGYDVHWYQQLPGTAPKLLIYRSNQRPSGVPDRFSGSKSGTSASLAISGLRSEDEADYYCSSYAGNYNLVFGGGTKLTVLDKTHTCPPCPAPEAAGAPSVFLFPPKPKDTLMISRTPEVTCVVVDVSHEDPEVKFNWYVDGVEVHNAKTKPREEQYNSTYRVVSVLTVLHQDWLNGKEYKCKVSNKALPAPIEKTISKAKGQPREPQVCTLPPSRDELTKNQVSLSCAVKGFYPSDIAVEWESNGQPENNYKTTPPVLDSDGSFFLVSKLTVDKSRWQQGNVFSCSVMHEALHNHYTQKSLSLSPGWSHPQFEK chain 2: not shown | 76 | 1.87e+06
DGL652 (bispecific antibody) chain 1: not shown chain 2: EVQLLESGGGLVQPGGSLRLSCAASGFTFSDYYMTWIRQAPGKGLEWVSSISGGSTYYADSRKGRFTISRDNSENTLYLQMNSLRAEDTAVYYCARDFGVAGWFGQYGMDVWGQGTLVTVSSGGGGSGGGGSGGGGSQSVLTQPPSASGTPGQRVTISCTGSSSNIGAGYDVHWYQQLPGTAPKLLIYRSNQRPSGVPDRFSGSKSGTSASLAISGLRSEDEADYYCSSYAGNYNLVFGGGTKLTVLDKTHTCPPCPAPEAAGAPSVFLFPPKPKDTLMISRTPEVTCVVVDVSHEDPEVKFNWYVDGVEVHNAKTKPREEQYNSTYRVVSVLTVLHQDWLNGKEYKCKVSNKALPAPIEKTISKAKGQPREPQVCTLPPSRDELTKNQVSLSCAVKGFYPSDIAVEWESNGQPENNYKTTPPVLDSDGSFFLVSKLTVDKSRWQQGNVFSCSVMHEALHNHYTQKSLSLSPGWSHPQFEK | 60 | 1.48e+06
DGL656 (bispecific antibody) chain 1: EVQLLESGGGLVQPGGSLRLSCAASGFTFSDYYMNWIRQAPGKGLEWVSSISGGSTYYADSVKGRFTISRDNSENTLYLQMNSLRAEDTAVYYCARDFGVAGWFGYYGMDVWGQGTLVTVSSGGGGSGGGGSGGGGSQSVLTQPPSASGTPGQRVTISCTGSSSNIGAGYDVHWYQQLPGTAPKLLIYRSNQRPSGVPDRFSGSKSGTSASLAISGLRSEDEADYYCSSYAGNYNLVFGGGTKLTVLDKTHTCPPCPAPEAAGAPSVFLFPPKPKDTLMISRTPEVTCVVVDVSHEDPEVKFNWYVDGVEVHNAKTKPREEQYNSTYRVVSVLTVLHQDWLNGKEYKCKVSNKALPAPIEKTISKAKGQPREPQVCTLPPSRDELTKNQVSLSCAVKGFYPSDIAVEWESNGQPENNYKTTPPVLDSDGSFFLVSKLTVDKSRWQQGNVFSCSVMHEALHNHYTQKSLSLSPGWSHPQFEK chain 2: not shown | 55 | 1.36e+06
DGL730 (bispecific antibody) chain 1: EVQLLESGGGLVQPGGSLRLSCAASGFTFSDYYMTWIRQAPGKGLEWVSSISGGSTYYADSRKGRFTISRDNSENTLYLQMNSLRAEDTAVYYCARDYGVAGWFGQYGMDVWGQGTLVTVSSGGGGSGGGGSGGGGSQSVLTQPPSASGTPGQRVTISCTGSSSNIGAGYDVHWYQQLPGTAPKLLIYRSNQRPSGVPDRFSGSKSGTSASLAISGLRSEDEADYYCSSYAGNYNLVFGGGTKLTVLDKTHTCPPCPAPEAAGAPSVFLFPPKPKDTLMISRTPEVTCVVVDVSHEDPEVKFNWYVDGVEVHNAKTKPREEQYNSTYRVVSVLTVLHQDWLNGKEYKCKVSNKALPAPIEKTISKAKGQPREPQVCTLPPSRDELTKNQVSLSCAVKGFYPSDIAVEWESNGQPENNYKTTPPVLDSDGSFFLVSKLTVDKSRWQQGNVFSCSVMHEALHNHYTQKSLSLSPGWSHPQFEK chain 2: not shown | 22 | 342000
DGL734 (bispecific antibody) chain 1: EVQLLESGGGLVQPGGSLRLSCAASGFTFSDYWMTWIRQAPGKGLEWVSSISGGTTYYADSRKGRFTISRDNSENTLYLQMNSLRAEDTAVYYCARDYGVAGWFGQYGMDVWGQGTLVTVSSGGGGSGGGGSGGGGSQSVLTQPPSASGTPGQRVTISCTGSSSNIGAGYDVHWYQQLPGTAPKLLIYRSNQRPSGVPDRFSGSKSGTSASLAISGLRSEDEADYYCSSYAGNYNLVFGGGTKLTVLDKTHTCPPCPAPEAAGAPSVFLFPPKPKDTLMISRTPEVTCVVVDVSHEDPEVKFNWYVDGVEVHNAKTKPREEQYNSTYRVVSVLTVLHQDWLNGKEYKCKVSNKALPAPIEKTISKAKGQPREPQVCTLPPSRDELTKNQVSLSCAVKGFYPSDIAVEWESNGQPENNYKTTPPVLDSDGSFFLVSKLTVDKSRWQQGNVFSCSVMHEALHNHYTQKSLSLSPGWSHPQFEK chain 2: not shown | 14 | 217000

The next lines start with the values.

% Emax BMP9 [%] | Emax (RLU) | Binder
58 | 1.43e+06 | DGL653 (bispecific antibody) chain 1: not shown chain 2: EVQLLESGGGLVQPGGSLRLSCAASGFTFSDYYMTWIRQAPGKGLEWVSSISGGSTYYADSRKGRFTISRDNSENTLYLQMNSLRAEDTAVYYCARDFGVAGWFGQYGMDVWGQGTLVTVSSGGGGSGGGGSGGGGSQSVLTQPPSASGTPGQRVTISCTGSSSNIGAGYDVHWYQQLPGTAPKLLIYRSNQRPSGVPDRFSGSKSGTSASLAISGLRSEDEADYYCSSYAGNYNLVFGGGTKLTVLDKTHTCPPCPAPEAAGAPSVFLFPPKPKDTLMISRTPEVTCVVVDVSHEDPEVKFNWYVDGVEVHNAKTKPREEQYNSTYRVVSVLTVLHQDWLNGKEYKCKVSNKALPAPIEKTISKAKGQPREPQVCTLPPSRDELTKNQVSLSCAVKGFYPSDIAVEWESNGQPENNYKTTPPVLDSDGSFFLVSKLTVDKSRWQQGNVFSCSVMHEALHNHYTQKSLSLSPGWSHPQFEK
18 | 437000 | DGL655 (bispecific antibody) chain 1: EVQLLESGGGLVQPGGSLRLSCAASGFTFSDSYMSWIRQAPGKGLEWVSSISGGSTYYADSVKGRFTISRDNSENTLYLQMNSLRAEDTAVYYCARDFGVAGYFGQYGMDVWGQGTLVTVSSGGGGSGGGGSGGGGSQSVLTQPPSASGTPGQRVTISCTGSSSNIGAGYDVHWYQQLPGTAPKLLIYRSNQRPSGVPDRFSGSKSGTSASLAISGLRSEDEADYYCSSYAGNYNLVFGGGTKLTVLDKTHTCPPCPAPEAAGAPSVFLFPPKPKDTLMISRTPEVTCVVVDVSHEDPEVKFNWYVDGVEVHNAKTKPREEQYNSTYRVVSVLTVLHQDWLNGKEYKCKVSNKALPAPIEKTISKAKGQPREPQVCTLPPSRDELTKNQVSLSCAVKGFYPSDIAVEWESNGQPENNYKTTPPVLDSDGSFFLVSKLTVDKSRWQQGNVFSCSVMHEALHNHYTQKSLSLSPGWSHPQFEK chain 2: not shown
54 | 845000 | DGL732 (bispecific antibody) chain 1: EVQLLESGGGLVQPGGSLRLSCAASGFTFSDYWMTWIRQAPGKGLEWVSSISGGSTYYADSRKGRFTISRDNSENTLYLQMNSLRAEDTAVYYCARDFGVAGWFGQYGMDVWGQGTLVTVSSGGGGSGGGGSGGGGSQSVLTQPPSASGTPGQRVTISCTGSSSNIGAGYDVHWYQQLPGTAPKLLIYRSNQRPSGVPDRFSGSKSGTSASLAISGLRSEDEADYYCSSYAGNYNLVFGGGTKLTVLDKTHTCPPCPAPEAAGAPSVFLFPPKPKDTLMISRTPEVTCVVVDVSHEDPEVKFNWYVDGVEVHNAKTKPREEQYNSTYRVVSVLTVLHQDWLNGKEYKCKVSNKALPAPIEKTISKAKGQPREPQVCTLPPSRDELTKNQVSLSCAVKGFYPSDIAVEWESNGQPENNYKTTPPVLDSDGSFFLVSKLTVDKSRWQQGNVFSCSVMHEALHNHYTQKSLSLSPGWSHPQFEK chain 2: not shown
106 | 1.65e+06 | DGL733 (bispecific antibody) chain 1: EVQLLESGGGLVQPGGSLRLSCAASGFTFSDYYMTWIRQAPGKGLEWVSSISGGTTYYADSRKGRFTISRDNSENTLYLQMNSLRAEDTAVYYCARDFGVAGWFGQYGMDVWGQGTLVTVSSGGGGSGGGGSGGGGSQSVLTQPPSASGTPGQRVTISCTGSSSNIGAGYDVHWYQQLPGTAPKLLIYRSNQRPSGVPDRFSGSKSGTSASLAISGLRSEDEADYYCSSYAGNYNLVFGGGTKLTVLDKTHTCPPCPAPEAAGAPSVFLFPPKPKDTLMISRTPEVTCVVVDVSHEDPEVKFNWYVDGVEVHNAKTKPREEQYNSTYRVVSVLTVLHQDWLNGKEYKCKVSNKALPAPIEKTISKAKGQPREPQVCTLPPSRDELTKNQVSLSCAVKGFYPSDIAVEWESNGQPENNYKTTPPVLDSDGSFFLVSKLTVDKSRWQQGNVFSCSVMHEALHNHYTQKSLSLSPGWSHPQFEK chain 2: not shown
